Experiment: yeast display, Sf9 membrane polyspecificity reagent, FACS + sequencing; frameworks hold sequencing errors
Summary of the method: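 Genes from sorted yeast were amplified by colony PCR, read by MiSeq 2 × 250 sequencing and filtered on CDR length. These cells carried a synthetic nanobody library in Saccharomyces cerevisiae BJ5465 and were sorted by FACS into low and high (top ~1%) gates on anti-HA and streptavidin fluorescence. Polyreactivity is labelled according to the gate of origin.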

Row | Sequence | polyreactivity (PSR sort gate)
1 | QVQLVESGGGLVQAGGSLRLICAASGITFEVYAMGRYRLAPGKEMELVAVITSVGSTNYADSVKGRFTISRDNAKNTVYLQMNSLKPEDPAVYYCAALKWTVRRFNPYTYYRYDYWGQGTQVTVSS | low polyreactivity
2 | QVQLVESGGGLVQSGGSLRLSCAASGSIFIGNTMGWYRQAPGKERELVATIRRSGSRTYYADSVKGRFTISRDNAKHTVYLQMNSLKPEDTAVYYCAAVRLRTSGYKTIYDYWGQGTQVTVSS | low polyreactivity
3 | QVQLVESGGGLVQAGGSLRLICAASGRTFVYYAMGWYRQAPGKERELVAAISSSGGSTSYADSVKGRFTISRDNAKNTVYLQMNSLKPEDTAFYYCAADVSVSGYYYWGQGTQVTVSS | high polyreactivity
4 | QVQLVESWRGLDQAGGSLRLICSASGGIFKGYSMGWFRQAPGKERELVAVISSRVGSTYYADSLKGRFTISRDNEKNTVYLQMNSQKPEHTAVYYCAKRRYAAVNYNYWGQGTQVTVSS | high polyreactivity
5 | QVQLVESGGGLVQAGGSLRLSCAASGSTFYFYAMGWYRQAPGKERELVAVISSGGRTYYADSVKGRFTISRDNAKNTVYLQMNSLKPEDTAVYYCAASWPSSLTYYYWGQGTQVTVSS | low polyreactivity
6 | QVQLVESGGGLVQAGGSLRLSCAASGSIFPGYAMGWYRQAPGKERELVATITYSDGSTYYADSVKRRFTISRDIATNTVFLQMNSLKPEDTAGYYCAVTYWWYYGYDYWGQGTQVTVSS | low polyreactivity
7 | QVQLVESGGGLVQAGGSLRLSCAASGITFYPNGMGWYRQAPGKEREFVAAITSSGGSTYYADSVKGRFRISRDNAKNTLYLQMNSLKPEDTAVYYCAAQYYPISYYGYGYWGQGTQVTVSS | low polyreactivity
8 | QVQLVESGGGLVQAGGSLRLSCAASGRIFLYYAMGWYRQAPGKERELVAGISTGGSTNYADSVKGRFTISRDNAKNTVYLQMNSLKPEDTAVYYCAVVDVEEHVGHWGQGTQVTVSS | low polyreactivity
9 | QVQLVESGGGLFQSGGSLRLTSAASGSTFAYKAMGWYRQAPGKEREFVAAITIGSTYADSVKGRFTISRDNAKNTVYLQMNSLKPEDTAVYYCAVRRPRRNYNYPYDYWGQGTQVTVSS | low polyreactivity
10 | QVQLVESGGGFVQAGGSLRLSCAACGSTFATYGMGWYRQAPGKERELVADITSGGSTYYADSVKGRFTISRDNAKNTVYLQMNSLKPEDTAVYSCNAPYGGPYYIQYDYWGQGTQVTVSS | low polyreactivity
11 | QVQLVESVGGLVQAGGRLRLSCAASGRIFSFYAMGWYRPAPGKEREFVAAITYSGGSSYYADSVKGRFTNSRDNAKKTVYLQMNSLKPEDTAVYYCAARYRYITKYDYWGQGTQVTVSS | high polyreactivity
12 | QDQLVESGGGLVQAGGSLRLSCAASGFIFGRYTMGWYRQAPWKERELVAAISGSDVSTYYADSVKGRFTISRDNAKNTVYIQMNSLKPEDTAVYYCAADAPWAYYEYDYWGQGTQVTVSS | low polyreactivity
13 | QVQLVESGGGLVQAGGSLRLSCAASGFIFTYYAMGWYRQAPGKERELVAAIRRGGNTYYADSVKGRFTISRDNAKNTVYLQMNSLKPEDTAVYYCAASAGPRASYYYWGQGTQVTVSS | high polyreactivity
14 | QVQRVESGGGLVQAGGSLRLSCAASGFTFRWYAMGWYRQAPGKEREMVAAISRSGASTYYADSVKGRFTISRDNAKNTVYLQMNSLKPEDTAVYYCAVLWHGRRPLYKLRTGPEYDYWGQGTQVTVSS | high polyreactivity
15 | QVQLVESGGGLVQAGGSLRLSCAASGIIFAYYAMGWYRQAPGKERELVAAISDNGGRTFYADSVKGRFTISRDNAKNTVYLQMNSLKPEDTAVYYCAAVVYSEYYYWGQGTQVTVSS | low polyreactivity
16 | QVQLVESGGGLVQAGGSLRLSCAASGSTFTSYAMGWYRQAPGKERELVASISRSGGSTYYADSVKGRFTISRDNAKNTVYLQMNSLKPEDTAVYYCAVRSVTWHGYWGQGTQVTVSS | high polyreactivity
17 | QVQLVESAGGLVQAGGSLRLSCAASGRIFKFYTMGWYRQAPGKERELVAAISSSDGSTHYADSVKGRFTISRDNAKNTVYLQMNSLKPEDTAVYYCAAQGGRNRGYRYYWGQGTQVTVSS | high polyreactivity
